Test results published in article PMC2886590.

Molecular target: MLL PHD3 finger (residues 1565-1627), GST cleaved (human) (UniProt Q03164)
Assay: other fluorescence titration

MLL PHD3 finger (residues 1565-1627), GST cleaved (human), sequence (Q03164 1565-1627): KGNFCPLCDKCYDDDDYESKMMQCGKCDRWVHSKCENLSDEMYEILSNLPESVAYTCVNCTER

## H3K4me3 peptide (12-mer histone tail peptide)
  Kd: 19 µM
